Results reported in paper PMC12661054, “The CIP2A-TOPBP1 axis facilitates mitotic DNA repair via MiDAS and MMEJ” (Nature Communications, 2025).
Square brackets hold non-standard residues; d marks the D form. Ends that are not written are not given here. fluorescein = fluorescein label on the N-terminus; pT = C[C@@H](OP(=O)(O)O)[C@H](N)C(=O)O

Target: T1, GST-TOPBP1(BRCT0-2 1-290) WT (human, UniProt Q92547 1-290)
T1 construct: TOPBP1, human, residues 1-290 (BRCT0-2); expressed from pGEX-6P-1, eluted with glutathione, no cleavage described; also called TOPBP1 BRCT0-1-2; TOPBP1 BRCT 0-1-2 WT; source: E. coli BL21(DE3), purified (HiTrap GST, Superdex 200)
Test: fluorescence polarisation; 100 nM fluorescein-labelled SLX4 peptide, increasing concentrations of TOPBP1 BRCT fragment; room temperature; 25 mM HEPES pH 7.5, 150 mM NaCl, 1 mM EDTA, 0.25 mM TCEP, 0.002% Tween 20; single site with non-specific component
Conditions: both partners purified

B1: Flu-SLX4_pT1260 (peptide)
peptide: fluorescein-GYGTSWLVPA[pT]PLASRSR
modifications: also: phosphothreonine at Thr1260 (position 4 or 11)
notes: residues before the SLX4 stretch, not SLX4; SLX4, human, amino acids 1253-1267, pT1260; also called fluorescein tagged SLX4 pT1260-containing peptide; pThr1260 SLX4 peptide; source: synthetic peptide
Q: Does B1 bind?
A: binds
